Where two headings read alike, the source gives them in different places.
Key:
Assay in all cases: AUC
EYFP (Aequorea victoria) [1] = biological target: EYFP (Aequorea victoria)
EYFP (Aequorea victoria) [2] = biological target: EYFP (Aequorea victoria); remark: listed apart in the source
EGFP (Aequorea victoria) [3] = biological target: EGFP (Aequorea victoria)
EGFP (Aequorea victoria) [4] = biological target: EGFP (Aequorea victoria); remark: listed apart in the source

Row | stoichiometry N (EYFP (Aequorea victoria) [1]) | stoichiometry N (EYFP (Aequorea victoria) [2]) | stoichiometry N (EGFP (Aequorea victoria) [3]) | stoichiometry N (EGFP (Aequorea victoria) [4]) | Substance
1 | 2 | 2 | – | – | EYFP
2 | – | – | 2 | 2 | EGFP
